Molecular target: T1, HSV2
T1 chain: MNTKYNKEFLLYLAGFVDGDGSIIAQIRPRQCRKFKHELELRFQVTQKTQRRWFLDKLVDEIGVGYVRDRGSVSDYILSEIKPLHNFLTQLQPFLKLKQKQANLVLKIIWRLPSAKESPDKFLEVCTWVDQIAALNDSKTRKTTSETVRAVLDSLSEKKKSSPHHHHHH

B1: HSV1 (protein)
chain: MNTKYNKEFLLYLAGFVDGDGSIIAQIKPRQSCKFKHELRLQFQVTQKTQRRWFLDKLVDEIGVGYVRDRGSVSDYILSEIKPLHNFLTQLQPFLKLKQKQANLVLKIIWRLPSAKESPDKFLEVCTWVDQIAALNDSKTRKTTSETVRAVLDSLSEKKKSSPHHHHHH
  cleavage of a linearized DNA substrate with the intended non-palindromic recognition sequence (SEQ ID NO: 28, HSV UL36 gene) by the 1:1 mixture: each rationally-designed meganuclease heterodimer cleaves its intended DNA site
